The source of these data is patent US20150337049A1 (Genmab, published 2015).

B1: IgG1-CD3 (IgG1-huCLB-T3/4-F405L), wild-type Fc (antibody)
heavy: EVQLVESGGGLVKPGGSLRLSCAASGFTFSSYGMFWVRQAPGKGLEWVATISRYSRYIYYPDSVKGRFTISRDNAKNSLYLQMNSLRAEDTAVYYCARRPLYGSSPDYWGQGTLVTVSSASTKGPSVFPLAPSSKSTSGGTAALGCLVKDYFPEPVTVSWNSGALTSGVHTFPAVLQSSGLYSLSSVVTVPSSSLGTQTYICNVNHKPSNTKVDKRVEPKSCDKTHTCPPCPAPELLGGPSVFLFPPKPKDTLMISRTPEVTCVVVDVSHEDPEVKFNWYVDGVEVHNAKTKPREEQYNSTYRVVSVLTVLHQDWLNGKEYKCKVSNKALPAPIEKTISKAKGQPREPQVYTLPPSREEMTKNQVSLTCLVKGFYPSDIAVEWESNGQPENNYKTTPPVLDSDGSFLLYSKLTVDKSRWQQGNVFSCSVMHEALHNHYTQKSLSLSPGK
VL: EIVLTQSPATLSLSPGERATLSCSASSSVTYVHWYQQKPGQAPRLLIYDTSKLASGIPARFSGSGSGTDFTLTISSLEPEDFAVYYCFQGSGYPLTFGSGTKLEMR
notes: also called wild-type IgG1-CD3; IgG1-huCLB-3/4
B2: IgG1-CD3-DA (IgG1-huCLB-T3/4-F405L with D265A) (antibody)
heavy: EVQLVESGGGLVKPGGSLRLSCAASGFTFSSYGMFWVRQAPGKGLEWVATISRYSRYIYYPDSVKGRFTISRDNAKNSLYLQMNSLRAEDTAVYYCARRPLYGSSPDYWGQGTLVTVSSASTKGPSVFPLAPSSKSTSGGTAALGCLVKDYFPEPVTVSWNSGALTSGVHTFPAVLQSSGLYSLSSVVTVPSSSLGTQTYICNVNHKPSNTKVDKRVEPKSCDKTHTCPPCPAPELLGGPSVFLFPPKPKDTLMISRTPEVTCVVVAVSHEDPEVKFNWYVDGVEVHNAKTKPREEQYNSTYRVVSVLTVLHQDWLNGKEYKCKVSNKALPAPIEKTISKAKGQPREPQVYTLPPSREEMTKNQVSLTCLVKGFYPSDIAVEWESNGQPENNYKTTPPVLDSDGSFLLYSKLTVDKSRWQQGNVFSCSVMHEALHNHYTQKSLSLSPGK
VL: B1 VL
notes: IgG1, F405L
B3: IgG1-CD3-LFLEDA (IgG1-huCLB-T3/4-F405L with L234F/L235E/D265A) (antibody, name in EU numbering)
heavy: EVQLVESGGGLVKPGGSLRLSCAASGFTFSSYGMFWVRQAPGKGLEWVATISRYSRYIYYPDSVKGRFTISRDNAKNSLYLQMNSLRAEDTAVYYCARRPLYGSSPDYWGQGTLVTVSSASTKGPSVFPLAPSSKSTSGGTAALGCLVKDYFPEPVTVSWNSGALTSGVHTFPAVLQSSGLYSLSSVVTVPSSSLGTQTYICNVNHKPSNTKVDKRVEPKSCDKTHTCPPCPAPEFEGGPSVFLFPPKPKDTLMISRTPEVTCVVVAVSHEDPEVKFNWYVDGVEVHNAKTKPREEQYNSTYRVVSVLTVLHQDWLNGKEYKCKVSNKALPAPIEKTISKAKGQPREPQVYTLPPSREEMTKNQVSLTCLVKGFYPSDIAVEWESNGQPENNYKTTPPVLDSDGSFLLYSKLTVDKSRWQQGNVFSCSVMHEALHNHYTQKSLSLSPGK
VL: B1 VL
notes: IgG1, F405L
B4: IgG1-CD3-LFLENQ (IgG1-huCLB-T3/4-F405L with L234F/L235E/N297Q) (antibody)
heavy: B3 heavy with A267D, N299Q
VL: B1 VL
notes: IgG1, F405L
B5: IgG1-CD3-N297Q (IgG1-huCLB-T3/4-F405L with N297Q) (antibody)
heavy: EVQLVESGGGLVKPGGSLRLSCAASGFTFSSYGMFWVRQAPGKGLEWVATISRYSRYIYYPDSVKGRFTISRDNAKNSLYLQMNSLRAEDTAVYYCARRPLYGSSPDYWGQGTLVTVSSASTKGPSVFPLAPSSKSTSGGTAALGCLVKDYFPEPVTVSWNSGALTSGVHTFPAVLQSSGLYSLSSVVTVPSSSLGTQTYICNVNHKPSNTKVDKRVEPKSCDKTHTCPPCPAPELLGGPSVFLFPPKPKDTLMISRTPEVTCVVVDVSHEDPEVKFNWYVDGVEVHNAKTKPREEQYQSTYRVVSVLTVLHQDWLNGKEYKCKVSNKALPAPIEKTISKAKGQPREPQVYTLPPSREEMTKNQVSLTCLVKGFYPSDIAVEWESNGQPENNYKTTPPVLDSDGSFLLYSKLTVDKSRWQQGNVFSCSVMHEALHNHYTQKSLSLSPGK
VL: B1 VL
notes: IgG1, F405L; also called NQ
B6: IgG1-CD3-DAPS (IgG1-huCLB-T3/4-F405L with D265A/P331S) (antibody)
heavy: B3 heavy with F236L, E237L, P333S
VL: B1 VL
notes: IgG1, F405L
B7: IgG1-CD3-… (IgG1-huCLB-T3/4-F405L with L234F/L235E/D265A/N297Q/P331S) (antibody)
heavy: B3 heavy with N299Q, P333S
VL: B1 VL
notes: IgG1, F405L
B8: IgG1-CD3-LFLEPS (IgG1-huCLB-T3/4-F405L with L234F/L235E/P331S) (antibody)
heavy: B3 heavy with A267D, P333S
VL: B1 VL
notes: IgG1, F405L
B9: IgG1-CD3-DANQ (IgG1-huCLB-T3/4-F405L with D265A/N297Q) (antibody)
heavy: B3 heavy with F236L, E237L, N299Q
VL: B1 VL
notes: IgG1, F405L
B10: IgG1-CD3-LALA (IgG1-huCLB-T3/4-F405L with L234A/L235A) (antibody)
heavy: B3 heavy with F236A, E237A, A267D
VL: B1 VL
notes: IgG1, F405L
B11: IgG1-CD3-LFLE (IgG1-huCLB-T3/4-F405L with L234F/L235E) (antibody)
heavy: B3 heavy with A267D
VL: B1 VL
notes: IgG1, F405L
B12: bsIgG1-CD3×HER2 (IgG1-huCLB-T3/4×HER2-169), wild-type Fc (bispecific antibody)
heavy 1: not shown
VL 1: B1 VL
heavy 2: not shown
VL 2: EIVLTQSPATLSLSPGERATLSCRASQSVSSYLAWYQQKPGQAPRLLIYDASNRATGIPARFSGSGSGTDFTLTISSLEPEDFAVYYCQQRSNWPRTFGQGTKVEIK
notes: also called bispecific IgG1-CD3×HER2; (bs)IgG-CD3×HER2
B13: bsIgG1-CD3×HER2-DA (IgG1-huCLB-T3/4×HER2-169 with D265A) (bispecific antibody)
heavy 1: not shown
VL 1: B1 VL
heavy 2: not shown
VL 2: B12 VL 2
B14: IgG1-HER2-LFLE (IgG1-HER2-169-K409R with L234F/L235E) (antibody)
heavy: QVQLVQSGAEVKKPGASVKVSCKASGYTFTNYGISWVRQAPGQGLEWMGWLSAYSGNTIYAQKLQGRVTMTTDTSTTTAYMELRSLRSDDTAVYYCARDRIVVRPDYFDYWGQGTLVTVSSASTKGPSVFPLAPSSKSTSGGTAALGCLVKDYFPEPVTVSWNSGALTSGVHTFPAVLQSSGLYSLSSVVTVPSSSLGTQTYICNVNHKPSNTKVDKRVEPKSCDKTHTCPPCPAPEFEGGPSVFLFPPKPKDTLMISRTPEVTCVVVDVSHEDPEVKFNWYVDGVEVHNAKTKPREEQYNSTYRVVSVLTVLHQDWLNGKEYKCKVSNKALPAPIEKTISKAKGQPREPQVYTLPPSREEMTKNQVSLTCLVKGFYPSDIAVEWESNGQPENNYKTTPPVLDSDGSFFLYSRLTVDKSRWQQGNVFSCSVMHEALHNHYTQKSLSLSPGK
VL: B12 VL 2
notes: IgG1, K409R
B15: IgG1-HER2-LFLEDA (IgG1-HER2-169-K409R with L234F/L235E/D265A) (antibody, name in EU numbering)
heavy: B14 heavy with D269A
VL: B12 VL 2
notes: IgG1, K409R
B16: IgG1-HER2-… (IgG1-HER2-169-K409R with L234F/L235E/D265A/N297Q/P331S) (antibody)
heavy: B14 heavy with D269A, N301Q, P335S
VL: B12 VL 2
notes: IgG1, K409R
B17: IgG1-HER2-N297Q (IgG1-HER2-169-K409R with N297Q) (antibody)
heavy: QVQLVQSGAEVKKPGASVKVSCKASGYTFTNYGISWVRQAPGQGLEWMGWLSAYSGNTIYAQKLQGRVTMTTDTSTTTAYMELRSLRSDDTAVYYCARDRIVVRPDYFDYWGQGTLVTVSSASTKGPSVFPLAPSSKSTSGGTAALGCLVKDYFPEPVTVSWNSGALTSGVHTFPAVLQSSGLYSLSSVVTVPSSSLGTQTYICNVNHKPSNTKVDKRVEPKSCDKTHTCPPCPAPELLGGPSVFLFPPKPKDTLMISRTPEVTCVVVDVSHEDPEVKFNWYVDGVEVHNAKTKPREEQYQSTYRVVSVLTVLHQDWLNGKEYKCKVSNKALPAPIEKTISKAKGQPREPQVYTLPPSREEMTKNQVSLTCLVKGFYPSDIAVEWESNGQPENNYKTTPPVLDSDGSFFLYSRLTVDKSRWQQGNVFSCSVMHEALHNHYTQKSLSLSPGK
VL: B12 VL 2
notes: IgG1, K409R; also called NQ
B18: IgG1-HER2-LFLENQ (IgG1-HER2-169-K409R with L234F/L235E/N297Q) (antibody)
heavy: B14 heavy with N301Q
VL: B12 VL 2
notes: IgG1, K409R
B19: IgG1-HER2-LFLEPS (IgG1-HER2-169-K409R with L234F/L235E/P331S) (antibody)
heavy: B14 heavy with P335S
VL: B12 VL 2
notes: IgG1, K409R

Positions count from the first letter of the chain named. In names and notes the source's numbering stands.

One experiment addresses T1, C1q (from 3% pooled human serum) (human, UniProt P02745 23-245; P02746 28-253; P02747 29-245).
T1 construct: Native C1q of pooled human serum, detected with rabbit anti-human C1q
The experiment in a line: ELISA, antibody coated, 3% pooled human serum, anti-C1q detection. The procedure:
Plates were washed and blocked with PBS supplemented with 0.025% Tween 20 and 0.1% gelatine. […] Detection was performed by addition of 1 mg/mL 2,2′-azino-bis(3-ethylbenzothiazoline-6-sulfonic acid) (ABTS; Roche, Mannheim, Germany) for about 30 min. The reaction was stopped by the addition of 100 μL 2% oxalic acid. Absorbance was measured at 405 nm in a microplate reader (Biotek, Winooski, Vt.). Log transformed data were analyzed by fitting sigmoidal dose-response curves with variable slope using GraphPad Prism software.
For the molecule B1, the binding result is reported as “binds”.
On the same count and under the same terms, the value for B2 was “no binding (tested: coated at 7-30000 ng/mL)”; that for B3 was “no binding (tested: coated at 7-30000 ng/mL)”; that for B4 was “no binding (tested: coated at 7-30000 ng/mL)”.
Take B5: the binding result is “no binding (tested: coated at 7-30000 ng/mL)”.
Same read-out and setting: next, B6: “no binding (tested: coated at 7-30000 ng/mL)”; B7: “no binding (tested: coated at 7-30000 ng/mL)”; B8: “no binding (tested: coated at 7-30000 ng/mL)”.
Still for that read-out and setting: next, B9: “no binding (tested: coated at 7-30000 ng/mL)”; B10: “no binding (tested: coated at 7-30000 ng/mL)”; B11: “no binding (tested: coated at 7-30000 ng/mL)”.
Consider B12, for which the binding result is “binds”.
Still for that read-out and setting: next, B13: “no binding (tested: coated at 7-30000 ng/mL)”.

Another experiment deals with T2, HER2 on HER2-positive AU565 cells (human, UniProt P04626 23-1255).
T2 construct: whole, on cells
As to the kind of experiment: FACS, AU565 cells. The procedure:
Cells (1×10^5 cells/well) were incubated in polystyrene 96-well round-bottom plates (Greiner bio-one 650101) with serial dilutions of antibody preparations (range 2 to 10000 ng/mL in 4-fold dilutions for Jurkat cells and range 1 to 3000 ng/mL in 4-fold dilutions for on AU565 cells) in 100 μL PBS/0.1% BSA/0.02% azide at 4° C. for 30 min.
After washing twice in PBS/0.1% BSA/0.02% azide, cells were incubated in 100 μL with secondary antibody at 4° C. for 30 min. As a secondary antibody, R-Phycoerythrin (PE)-conjugated goat-anti-human IgG F(ab′)₂ (109-116-098, Jackson ImmunoResearch Laboratories, Inc., West Grove, Pa.) diluted 1/100 in PBS/0.1% BSA/0.02% azide, was used for all experiments. Next, cells were washed twice in PBS/0.1% BSA/0.02% azide, resuspended in 150 μL PBS/0.1% BSA/0.02% azide and analyzed on a FACS CantoII (BD Biosciences). Binding curves were analyzed using non-linear regression (sigmoidal dose-response with variable slope) using GraphPad Prism V5.04 software (GraphPad Software, San Diego, Calif., USA).
On the technique in general: A flow cytometer gives signals particle by particle.
Take B14: the binding result is listed as “binds”.
In the case of B12, the binding result is “binds”.
The same measure, in the same setting: the value for B15 was “binds”; that for B16 was “binds”; that for B13 was “binds”.
With B17, the binding result was “binds”.
Turning to B18, the binding result is reported as “binds”.
The same measure, in the same setting: the value for B19 was “binds”.
